Data published in the supplement of paper PMC10567573.
± gives the standard deviation.

Experiment: protein stability index of a GFP-peptide fusion (GPS, HEK-293T) (PSI 1-6); higher = more stable
[1] = treatment: DMSO, c terminus: a fixed tail appended
[2] = treatment: MLN4924 1 uM, 8 h, c terminus: a fixed tail appended
[3] = treatment: DMSO, c terminus: native
[4] = treatment: MLN4924 1 uM, 8 h, c terminus: native
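Further: 24-mer peptide tiles fused after GFP, lentivirally expressed, FACS-sorted into six equal bins by GFP/DsRed ratio, decoded by Illumina sequencing, PSI is the read-weighted mean bin number.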

Sequence	protein stability index [1]	protein stability index [2]	protein stability index [3]	protein stability index [4]
VCALCPVLGAHRGHPVGLALEAAV [TRIM14]	2.57 ± 0.34	2.37 ± 0.6		
QGRFCTIFRSYSRGAQGVILVYDI [RAB40A]	3.15 ± 0.35	2.99 ± 0.43		
VVPVLVFPPDLVFRADQRSGPRQL [MOSPD3]	2.27 ± 0.38	2.41 ± 0.25		
YKSFSKEQQTMDNLEKQLICPICL [TRIM55]	2.72 ± 0.38	2.77 ± 0.8		
PVDPDSQADTVHSNPELDVLLLGS [DNAAF3]	4.95 ± 0.11	5 ± 0.19		
HPSENIIAVAATNNLYIFQDKVN [PPP2R2B]			2.44 ± 0.22	2.64 ± 0.21
LYLNLALHLASDFFLKHPDKDVRL [PDS5B]	2.73 ± 0.41	3.29 ± 0.27		
LPFKPFAIILPILLNIRVATKYV [MIA2]			2.42 ± 0.81	3.36 ± 1.6
RVTTEQYQKAAEEVEAKFKRYESH [CHCHD3]	4.66 ± 0.14	4.7 ± 0.12		
PPSGSQPLTSTQGLEHAAAGGSSG [FBF1]	5.3 ± 0.2	5.44 ± 0.15		
NLRRHVPDLESGSESGADTISVNQ [DLC1]	5.29 ± 0.27	5.25 ± 0.28		
RMQVLKRQVQSLMVHQRKLEAELL [SMARCE1]	2.17 ± 0.27	2.6 ± 0.45		
FLFAKLFSHITSARKARKYEIPHF [PHTF1]	3 ± 0.43	2.79 ± 0.62		
QKVASNHSPFSSESRALSTSSNLG [TBX5]	4.19 ± 0.17	4.29 ± 0.085		
TRFTEEYQLFEELGKGAFSVVRRC [CAMK2A]	2.63 ± 0.39	2.54 ± 0.26		
LQRGEALSALDSKANNLSSLSKKY [SEC22B]	4.46 ± 0.11	4.34 ± 0.23		
PYFLFQHWATGYSKSSHPLIRSLF [SOAT1]	2.46 ± 0.51	2.34 ± 0.74		
VAGEFSEPVTLETPAFMFRLDAST [FSD1]	3.1 ± 0.27	3.16 ± 0.19		
ACGVILYILLVGYPPFWDEDQHKL [CAMK2B]	3.05 ± 0.85	2.93 ± 0.38		
LNLGSGTGYLSTMVGLILGPFGIN [PCMTD1]	3.33 ± 0.73	2.87 ± 0.49		
IREEGRCSSSDDDTDVDMEGLRRR [PBXIP1]	5.37 ± 0.25	5.42 ± 0.36		
SRRYNRKEPAEFNGDGAFLHDNHE [ZNF649]	4.73 ± 0.43	4.45 ± 0.13		

Sequence	protein stability index [1]	protein stability index [2]	protein stability index [3]	protein stability index [4]
ADVTLDPETAHPNLVLSEDRKSVK [TRIM39]	5.38 ± 0.16	5.37 ± 0.43		
LGMVGLFGTIISGIQLLIVEYKDI [SLC35F2]	3.16 ± 0.42	3.53 ± 0.41		
GNEKITMQNLNDRLASYLDKVRAL [KRT15]	2.6 ± 0.73	2.78 ± 0.5		
LQLEACGMRRKSLLTRKVICKSDA [GOLPH3]	2.95 ± 0.58	3.07 ± 0.43		
GTAITSQYLAERYKVNTPMLQSFI [SLC35F2]	2.58 ± 0.57	2.26 ± 0.38		
SPQPLASSPGPWGLEALAGGDLMP [FCHO1]	4.05 ± 0.093	4 ± 0.27		
LTSADRETAEEVSARIVQVVTAEA [MAP2]	4.86 ± 0.28	4.89 ± 0.42		
ALDYLQNQRIIHRDMKPDNILLDE [STK32A]	3.14 ± 0.17	3.47 ± 0.45		
YYYMGFYIHSCPKMKYKGQYRPSD [ATE1]	2.25 ± 0.82	2.45 ± 0.2		
ALVETSYVKVLHHMVKISGGPHIS [MAGEA3]	2.8 ± 0.52	2.82 ± 0.78		
HRMVVKIGDFGISKILSSKSKAYT [NEK8]	2.33 ± 0.084	2.14 ± 0.12		
DYKLLKPSLAVNLADPYRSLKAPG [JUNB]	3.41 ± 0.35	3.35 ± 0.14		
SKSKQPAGHRRPAGGIRESKESSK [C22orf31]	5.35 ± 0.055	4.91 ± 0.53		
KEEAQAEIEQYRLQREKEFKAKEA [ATP6V1G1]	5.5 ± 0.21	5.58 ± 0.38		
SFPEPEAAQPMTKKRKVDGLSTEA [PRAME]	5.19 ± 0.3	5.16 ± 0.14		
KTAGKENHFDMHRVGKWHQDFPVK [ZNF75A]	3.09 ± 0.36	3.38 ± 0.13		
DDYPSRGYSDRDGYGRDRDYSDHP [RBMX]	4.85 ± 0.3	4.87 ± 0.22		
LQVTEDVNSSIKTFFCPNDTYNDM [CLCN6]	3.66 ± 0.22	3.65 ± 0.25		
YQCPDQMARNPAAIDMFIIGATFT [FBXO3]	3.02 ± 0.48	2.51 ± 0.77		
YGAVELSGAGRRKNATRETTSTLK [IRX6]	4.56 ± 0.38	4.52 ± 0.29		
NNTGKNLELKFVSSLRRQFEFSVD [TENT5D]	2.75 ± 0.42	2.75 ± 0.4		
KNIFRIRFHDPSPAQSHTLQANDV [NET1]	2.76 ± 0.31	3.06 ± 0.24		
